Reference: patent US20150273076A1, “SP1 POLYPEPTIDES, MODIFIED SP1 POLYPEPTIDES AND USES THEREOF” (Fulcrum SP Ltd., priority 2006, published 2015)

Columns and labels:
[1] = Heat stability (no precipitation after heat treatment); conditions: 10 min at 100° C. or 30 min at 85° C.
[2] = Protein melting point by DSC; type: physicochemical; conditions: protein melting point by DSC; in °C (unit assumed)
Method: Differential scanning calorimetry study of SP1 indicates in a Tm of 107° C. for SP1. […] Further, folding and refolding of inclusion bodies including insoluble SP1, and the heat stability of the unfolded proteins indicate that the intact monomer, as well as the oligomer, is heat resistant (FIG. 5).

[3] = Oligomeric complex formation by SDS PAGE (unboiled samples); conditions: for Complex Formation: SDS PAGE, samples not boiled in the application buffer
Method: SP1 (20 μg) was prepared in SDS sample buffer at different SP1-monomer: SDS molar ratios and boiled (or not) (5 mM) prior to SDS-PAGE analysis. Heat stability of SP1 oligomer (10 μg) was tested in the same buffer at SP1-monomer: SDS=1:1733 and heated for 1 to 10 mM at different temperatures.
Purified 6HSP1 and ΔNSP1 were first denatured to the monomeric forms by boiling the proteins in SDS sample buffer. The denatured proteins were then separated in preparative SDS-PAGE, and visualized by Coomassie blue staining. The monomeric forms of two recombinant protein bands were excised. Gel slices that carried monomeric form of 6HSP1 (SEQ ID NO:7) and ΔNSP1 (SEQ ID NO:2) were mixed at 1:1 ratio (v/v). In order to enhance the surface/volume ratio, the gel slices were pulverized using a pestle and mortar in the presence of liquid nitrogen. […] The hetero-oligomeric complex was isolated by subjecting the eluated protein to Ni-NTA Agarose beads and the bound proteins were eluted by 400 mM imidazole using a standard procedure (Sigma protocol for P 6611). […] The composition of hetero-oligomeric SP1 was determined by SDS-PAGE and visualized by silver staining.

| Molecule | Heat stability [1] | Tm [2] | Complex Formation [3] | oligomeric complex formation, stability and resistance ([3]; boiling and protease stability) |
| --- | --- | --- | --- | --- |
| HH2: SP1 N-terminus modification HH2, SEQ ID NO:4 (protein, Sp1 mutant variant 2X His inserted into position 2) MHHATRTPKLVKHTLLTRFKDEITREQIDNYINDYTNLLDLIPSMKSFNWGTDLGMESAELNRGYTHAFESTFESKSGLQEYLDSAALAAFAEGFLPTLSQRLVIDYFLY | + |  |  |  |
| R23A: SP1 mutant R23A, SEQ ID NO:12 (protein, Sp1 mutant variant R23A mutated) MATRTPKLVKHTLLTRFKDEITAEQIDNYINDYTNLLDLIPSMKSFNWGTDLGMESAELNRGYTHAFESTFESKSGLQEYLDSAALAAFAEGFLPTLSQRLVIDYFLY | + | 108 |  |  |
| I30A: SP1 mutant I30A, SEQ ID NO:14 (protein, Sp1 mutant variant I30A mutated) MATRTPKLVKHTLLTRFKDEITREQIDNYANDYTNLLDLIPSMKSFNWGTDLGMESAELNRGYTHAFESTFESKSGLQEYLDSAALAAFAEGFLPTLSQRLVIDYFLY |  | 98 |  |  |
| E68A: SP1 mutant E68A, SEQ ID NO:19 (protein, Sp1 mutant variant E68A mutated) MATRTPKLVKHTLLTRFKDEITREQIDNYINDYTNLLDLIPSMKSFNWGTDLGMESAELNRGYTHAFASTFESKSGLQEYLDSAALAAFAEGFLPTLSQRLVIDYFLY | + | 105.8 |  |  |
| T34A: SP1 mutant T34A, SEQ ID NO:16 (protein, Sp1 mutant variant T34A mutated) MATRTPKLVKHTLLTRFKDEITREQIDNYINDYANLLDLIPSMKSFNWGTDLGMESAELNRGYTHAFESTFESKSGLQEYLDSAALAAFAEGFLPTLSQRLVIDYFLY | + | 114 |  |  |
| Y108A: SP1 mutant Y108A, SEQ ID NO:24 (protein, Sp1 mutant variant Y108A mutated) MATRTPKLVKHTLLTRFKDEITREQIDNYINDYTNLLDLIPSMKSFNWGTDLGMESAELNRGYTHAFESTFESKSGLQEYLDSAALAAFAEGFLPTLSQRLVIDYFLA |  | 68 |  |  |
| D38A: SP1 mutant D38A, SEQ ID NO:17 (protein, Sp1 mutant variant D38A mutated) MATRTPKLVKHTLLTRFKDEITREQIDNYINDYTNLLALIPSMKSFNWGTDLGMESAELNRGYTHAFESTFESKSGLQEYLDSAALAAFAEGFLPTLSQRLVIDYFLY | + | 113 |  |  |
| N31A: SP1 mutant N31A, SEQ ID NO:15 (protein, Sp1 mutant variant N31A mutated) MATRTPKLVKHTLLTRFKDEITREQIDNYIADYTNLLDLIPSMKSFNWGTDLGMESAELNRGYTHAFESTFESKSGLQEYLDSAALAAFAEGFLPTLSQRLVIDYFLY | + | 110 |  |  |
| D27A: SP1 mutant D27A, SEQ ID NO:13 (protein, Sp1 mutant variant D27A mutated) MATRTPKLVKHTLLTRFKDEITREQIANYINDYTNLLDLIPSMKSFNWGTDLGMESAELNRGYTHAFESTFESKSGLQEYLDSAALAAFAEGFLPTLSQRLVIDYFLY | + |  |  |  |
| 6H2: six histidine N-terminal tagged SP1, SEQ ID NO:7 (protein) MHHHHHHATRTPKLVKHTLLTRFKDEITREQIDNYINDYTNLLDLIPSMKSFNWGTDLGMESAELNRGYTHAFESTFESKSGLQEYLDSAALAAFAEGFLPTLSQRLVIDYFLY |  | 109 |  |  |
| N31A T34A 6XH2: SP1 mutant N31A T34A 6XH2, SEQ ID NO:30 (protein, Sp1 mutant variant 6Xhis inserted into position 2, N31A and T34A mutated) MHHHHHHATRTPKLVKHTLLTRFKDEITREQIDNYIADYANLLDLIPSMKSFNWGTDLGMESAELNRGYTHAFESTFESKSGLQEYLDSAALAAFAEGFLPTLSQRLVIDYFLY |  | 96.6 |  |  |
| F106A 6XH2: SP1 mutant F106A 6XH2, SEQ ID NO:23 (protein, Sp1 mutant variant 6Xhis inserted into position 2 and F106A mutated) MHHHHHHATRTPKLVKHTLLTRFKDEITREQIDNYINDYTNLLDLIPSMKSFNWGTDLGMESAELNRGYTHAFESTFESKSGLQEYLDSAALAAFAEGFLPTLSQRLVIDYALY |  | 75 |  |  |
| S73A S75A 6XH2: SP1 mutant S73A S75A 6XH2, SEQ ID NO:28 (protein, Sp1 mutant variant 6Xhis inserted into position 2, S73A and S75A mutated) MHHHHHHATRTPKLVKHTLLTRFKDEITREQIDNYINDYTNLLDLIPSMKSFNWGTDLGMESAELNRGYTHAFESTFEAKAGLQEYLDSAALAAFAEGFLPTLSQRLVIDYFLY | + |  |  |  |
| D38A S75A 6XH2: SP1 mutant D38A S75A 6XH2, SEQ ID NO:29 (protein, Sp1 mutant variant 6Xhis inserted into position 2, D38A and S75A mutated) MHHHHHHATRTPKLVKHTLLTRFKDEITREQIDNYINAYTNLLALIPSMKSFNWGTDLGMESAELNRGYTHAFEATFESKAGLQEYLDSAALAAFAEGFLPTLSQRLVIDYFLY | + | 112 |  |  |
| Δ2-7 Cys2: SP1 variant Δ2-7 Cys2, SEQ ID NO:9 (protein, Sp1 mutant variant Cys inserted into position 2 together with a deletion of amino acid 2-7) MCLVKHTLLTRFKDEITREQIDNYINDYTNLLDLIPSMKSFNWGTDLGMESAELNRGYTHAFESTFESKSGLQEYLDSAALAAFAEGFLPTLSQRLVIDYFLY | + |  |  |  |
| 42-6 S73C: SP1 Loop 4 modification, printed 42-6 S73C, SEQ ID NO:21 (protein, Sp1 mutant variant amino acids 2-6 deleted and S73C mutated) MKLVKHTLLTRFKDEITREQIDNYINDYTNLLDLIPSMKSFNWGTDLGMESAELNRGYTHAFESTFECKSGLQEYLDSAALAAFAEGFLPTLSQRLVIDYFLY | + |  | 11 |  |
| Δ2-6 I40C: SP1 Loop 2 modification Δ2-6 I40C, SEQ ID NO:18 (protein, Sp1 mutant variant amino acids 2-6 deleted and I40C mutated) MKLVKHTLLTRFKDEITREQIDNYINDYTNLLDLCPSMKSFNWGTDLGMESAELNRGYTHAFESTFESKSGLQEYLDSAALAAFAEGFLPTLSQRLVIDYFLY | + |  |  |  |
| Δ2-6 E72C: SP1 Loop 4 modification Δ2-6 E72C, SEQ ID NO:20 (protein, Sp1 mutant variant amino acids 2-6 deleted and E72C mutated) MKLVKHTLLTRFKDEITREQIDNYINDYTNLLDLIPSMKSFNWGTDLGMESAELNRGYTHAFESTFCSKSGLQEYLDSAALAAFAEGFLPTLSQRLVIDYFLY | + |  | 10 |  |
| Δ2-6 L81C: SP1 variant Δ2-6 L81C, external perimeters of the dodecamer ring, SEQ ID NO:22 (protein, Sp1 mutant variant amino acids 2-6 deleted and L81C mutated) MKLVKHTLLTRFKDEITREQIDNYINDYTNLLDLIPSMKSFNWGTDLGMESAELNRGYTHAFESTFESKSGLQEYCDSAALAAFAEGFLPTLSQRLVIDYFLY | + |  |  |  |
| Cys2 K18R Gly19: Insertion of Cys residue in position 2 and of glycine residue in position 19, K18R (Cys2loop1RGd), SEQ ID NO:11 (protein, Sp1 mutant variant Cys inserted into position 2, K18R mutated and a Gly inserted into position 19) MCATRTPKLVKHTLLTRFRGDEITREQIDNYINDYTNLLDLIPSMKSFNWGTDLGMESAELNRGYTHAFESTFESKSGLQEYLDSAALAAFAEGFLPTLSQRLVIDYFLY | + |  |  | formed a boiling stable and protease resistant dodecamer |
| Δ2-6 His2: SP1 variant Δ2-6 His2, SEQ ID NO:8 (protein, Sp1 mutant variant His inserted into position 2 together with a deletion of amino acid 2-6) MHKLVKHTLLTRFKDEITREQIDNYINDYTNLLDLIPSMKSFNWGTDLGMESAELNRGYTHAFESTFESKSGLQEYLDSAALAAFAEGFLPTLSQRLVIDYFLY | + |  |  |  |
